Measurements as given in article PMC9596381, “GPC3-Unc5 receptor complex structure and role in cell migration” (Cell, 2022).

Experiments:
[1] = biological target: T1, human glypican-3 core domain, residues 32-483 (hGPC3^core) (human, UniProt P51654 32-483, N-linked glycans at N124 and N241); test: SPR; Unc5A-D ectodomains immobilised; hGPC3^core or mGPC3^ecto injected in a 2-fold dilution series (top 4.5 uM) with Fc control protein, Nano^glue or Nano^break kept constant at 9 uM (with hGPC3^core) or 4.5 uM (with mGPC3^ecto); conditions: both partners purified
T1 construct: human glypican-3 (GPC3), core domain, residues 32-483; Only partly cleaved at the furin-like site (R355-R358); the two fragments stay covalently attached; The forward primer starts at Met1; source: HEK293T or GnTI-deficient HEK293S, transiently transfected, secreted, purified (HisTrap, SEC); not shown: His6, C-terminal, kept
T1 sequence (P51654 32-483): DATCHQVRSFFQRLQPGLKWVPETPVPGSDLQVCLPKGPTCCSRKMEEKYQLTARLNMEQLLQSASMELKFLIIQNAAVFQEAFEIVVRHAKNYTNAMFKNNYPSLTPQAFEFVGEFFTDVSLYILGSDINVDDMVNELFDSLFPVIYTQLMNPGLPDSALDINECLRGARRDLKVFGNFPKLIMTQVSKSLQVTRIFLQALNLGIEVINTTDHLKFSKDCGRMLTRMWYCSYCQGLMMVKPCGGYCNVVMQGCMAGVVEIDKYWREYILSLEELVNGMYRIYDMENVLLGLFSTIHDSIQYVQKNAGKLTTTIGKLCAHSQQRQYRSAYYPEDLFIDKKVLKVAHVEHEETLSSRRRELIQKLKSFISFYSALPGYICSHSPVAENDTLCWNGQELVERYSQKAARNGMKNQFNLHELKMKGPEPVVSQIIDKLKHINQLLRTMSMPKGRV

[2] = biological target: T2, murine GPC3 ectodomain, residues 31-559 (mGPC3^ecto) (mouse, UniProt Q8CFZ4 31-559); test: as above; conditions: both partners purified
T2 construct: mouse glypican-3 (GPC3), residues 31-559; source: HEK293 cells, purified
T2 sequence (Q8CFZ4 31-559): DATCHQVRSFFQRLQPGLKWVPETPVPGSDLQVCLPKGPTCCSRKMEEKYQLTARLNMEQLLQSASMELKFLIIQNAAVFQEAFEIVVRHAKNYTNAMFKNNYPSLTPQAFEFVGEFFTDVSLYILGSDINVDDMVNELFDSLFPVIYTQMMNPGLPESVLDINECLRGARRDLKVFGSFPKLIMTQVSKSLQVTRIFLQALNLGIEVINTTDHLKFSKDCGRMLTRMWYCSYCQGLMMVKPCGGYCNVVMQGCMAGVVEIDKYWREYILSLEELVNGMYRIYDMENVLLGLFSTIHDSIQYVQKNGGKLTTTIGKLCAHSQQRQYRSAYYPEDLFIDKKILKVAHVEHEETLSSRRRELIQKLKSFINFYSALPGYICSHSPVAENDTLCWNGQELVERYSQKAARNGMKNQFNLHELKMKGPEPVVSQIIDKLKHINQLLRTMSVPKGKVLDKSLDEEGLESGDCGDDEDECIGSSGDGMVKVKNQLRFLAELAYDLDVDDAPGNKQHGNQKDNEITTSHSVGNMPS

B1: mouse Unc5A ectodomain, residues 1-359 (mUnc5A^ecto) (domain or fragment)
chain: not shown
modifications: biotin on the Avi-tag
notes: signal peptide in the construct; mouse Unc5A, residues 1-359; source: HEK293 cells, purified; not shown: Avi-tag, C-terminal, kept
[1]
  binding result: binds
[2]
  binding result: binds
